Laboratory results: patent US20220119534A1 (DRAGONFLY THERAPEUTICS, published 2022)
Numbering of substitutions follows the chain as printed. Names may count otherwise. “And” between values parts separate entries of the source, which are not always exact repeats. Identical values can stand only once.

How the values were obtained:
mFc-hNKG2D [1] = target: T1, mFc-hNKG2D (human, UniProt P26718 73-216); assay: SPR Biacore 8K 37 C; mFc-hNKG2D captured on anti-mFc chip, TriNKET as analyte; 1:1 kinetic fit; pH 5.0 control
T1 construct: extracellular domain; Made in house (Dragonfly Tx); the order of tag and ECD follows the name mFc-hNKG2D; also called mFc-tagged human NKG2D; not shown: mouse Fc tag
T1 sequence (looked up): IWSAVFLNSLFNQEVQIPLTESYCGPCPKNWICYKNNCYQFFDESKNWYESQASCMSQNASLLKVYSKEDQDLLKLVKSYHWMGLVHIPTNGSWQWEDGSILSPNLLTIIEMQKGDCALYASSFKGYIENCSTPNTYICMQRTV

mFc-hNKG2D [2] = target: T1, mFc-hNKG2D; assay: SPR Biacore 8K 37 C; mFc-hNKG2D captured on anti-mFc chip, TriNKET as analyte; steady state fit; control sample, n=2
mFc-hNKG2D [3] = target: T2, mFc-hNKG2D (human, UniProt P26718 73-216); assay: SPR, 37 C, mFc-hNKG2D captured, steady state fit
T2 construct: extracellular domain; Recombinant mFc-tagged NKG2D dimer, made in house; also called human NKG2D; not shown: mouse Fc tag
T2 sequence (looked up): T1 sequence (looked up)

mFc-hNKG2D [4] = target: T2, mFc-hNKG2D; assay: SPR, 37 C, mFc-hNKG2D captured, steady state fit; average
[5] = target: T3, mFc-hNKG2D (recombinant mFc-tagged human NKG2D dimer) (human, UniProt P26718 73-216); assay: SPR 37C, mFc-hNKG2D captured, steady state fit
T3 construct: extracellular domain; Made in house; not shown: mouse Fc tag
T3 sequence (looked up): T1 sequence (looked up)

Human CLEC12A-K244Q-His = target: T4, Human CLEC12A-K244Q-His (human, UniProt Q5QGZ9 65-265); assay: SPR, two-state fit (ka1)
T4 construct: also called hCLEC12A (Q244); CLEC12A (Q244); not shown: His tag
T4 chain: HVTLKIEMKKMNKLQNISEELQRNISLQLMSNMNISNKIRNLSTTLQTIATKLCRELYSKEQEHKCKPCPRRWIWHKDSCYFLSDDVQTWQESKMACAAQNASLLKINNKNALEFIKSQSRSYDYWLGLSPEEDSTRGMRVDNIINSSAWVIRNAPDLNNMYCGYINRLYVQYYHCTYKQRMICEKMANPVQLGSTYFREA

[6] = target: T5, Human CLEC12A-His (recombinant, K244 WT) (human, UniProt Q5QGZ9 65-265); assay: SPR, two-state fit (ka1)
T5 construct: Made in house (Dragonfly Tx); also called hCLEC12A; hCLEC12A-His; not shown: His tag
T5 sequence: T4 chain with Q180K

[7] = target: T6, Human CLEC12A expressed on cells (Ba/F3-hCLEC12A, PL21, HL60) (human, UniProt Q5QGZ9 1-265); assay: cell-based or functional assay
T6 sequence: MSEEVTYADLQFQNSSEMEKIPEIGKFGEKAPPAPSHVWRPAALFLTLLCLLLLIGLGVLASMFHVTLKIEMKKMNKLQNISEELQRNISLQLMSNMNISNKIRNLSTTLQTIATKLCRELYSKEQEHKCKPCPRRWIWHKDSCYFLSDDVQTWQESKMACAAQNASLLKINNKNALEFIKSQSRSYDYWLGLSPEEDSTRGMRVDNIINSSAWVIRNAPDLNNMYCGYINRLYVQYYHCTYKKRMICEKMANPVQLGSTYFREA

[8] = target: T7, Cynomolgus CD16 (FcγRIII) (cynomolgus monkey, UniProt Q8SPW2 17-208, biotinylated); assay: SPR 25C, average
T7 construct: Bought recombinant receptor; also called cFcγRIII; Cyno FcγRIII
T7 sequence (Q8SPW2 17-208 limits assumed): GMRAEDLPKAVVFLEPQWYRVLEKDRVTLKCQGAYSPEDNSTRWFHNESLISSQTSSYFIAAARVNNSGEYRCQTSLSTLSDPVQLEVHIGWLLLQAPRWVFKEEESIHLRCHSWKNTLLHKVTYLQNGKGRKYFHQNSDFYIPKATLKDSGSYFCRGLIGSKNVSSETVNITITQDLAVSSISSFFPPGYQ

[9] = target: T5, Human CLEC12A-His (recombinant, K244 WT); assay: SPR, two-state fit (kd1); after 4 wks 40C in CST pH 7.0
[10] = target: T3, mFc-hNKG2D (recombinant mFc-tagged …); assay: SPR; control sample
[11] = target: T8, Human CD16a V158 (FcγRIIIa V158) (human, UniProt P08637 17-208, biotinylated); assay: SPR; control sample
T8 construct: Bought recombinant receptor; also called hCD16aV; hFcγRIIIa V158
T8 sequence (P08637 17-208 F176V limits assumed): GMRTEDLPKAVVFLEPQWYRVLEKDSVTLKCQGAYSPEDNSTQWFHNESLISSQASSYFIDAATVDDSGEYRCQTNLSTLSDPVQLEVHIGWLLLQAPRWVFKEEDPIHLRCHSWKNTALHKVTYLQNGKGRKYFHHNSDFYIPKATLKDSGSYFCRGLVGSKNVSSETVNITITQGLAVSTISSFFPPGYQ

[12] = target: T5, Human CLEC12A-His (recombinant, K244 WT); assay: SPR, two-state fit (kd1); control sample
[13] = target: T5, Human CLEC12A-His (recombinant, K244 WT); assay: SPR, two-state fit (kd1); after forced oxidation
recombinant human FcRn = target: T9, recombinant human FcRn (human, UniProt P55899 24-297; P61769 21-119); assay: SPR 25C, pH 6.0, steady state; pH 6.0; fourth replicate
T9 construct: also called hFcRn
T9 sequence (P55899 24-297 limits assumed, chain 1 of 2): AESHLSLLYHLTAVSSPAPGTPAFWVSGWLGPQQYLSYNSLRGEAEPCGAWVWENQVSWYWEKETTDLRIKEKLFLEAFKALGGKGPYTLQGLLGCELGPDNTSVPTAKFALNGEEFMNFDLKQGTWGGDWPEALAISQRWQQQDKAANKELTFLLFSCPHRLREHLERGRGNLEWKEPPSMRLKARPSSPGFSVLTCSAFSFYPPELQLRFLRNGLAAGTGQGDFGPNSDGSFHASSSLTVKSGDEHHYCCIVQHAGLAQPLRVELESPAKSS
T9 sequence (P61769 21-119 limits assumed, chain 2 of 2): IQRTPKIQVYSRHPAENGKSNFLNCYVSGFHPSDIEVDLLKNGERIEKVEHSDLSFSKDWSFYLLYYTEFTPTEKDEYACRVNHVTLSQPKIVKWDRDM

[14] = target: T10, recombinant human CD16a F158 (human, UniProt P08637 17-208); assay: SPR 25C
T10 construct: also called FcγRIIIa F158
T10 sequence (P08637 17-208 limits assumed): as the sequence (P08637 17-208 F176V limits assumed) above, with V160F counted along it

[15] = target: T11, recombinant human CD16a V158 (human, UniProt P08637 17-208, biotinylated); assay: SPR 25C
T11 construct: also called FcγRIIIa V158; hCD16aV
T11 sequence (P08637 17-208 F176V limits assumed): as the sequence (P08637 17-208 F176V limits assumed) above

B1: F3'-1602 TriNKET (bispecific antibody, human IgG1, kappa)
chain: QLQLQESGPGLVKPSETLSLTCTVSGFSLTNYGLHWIRQPPGKCLEWIGVIWSGGKTDYNPSLKSRVTISKDTSKNQFSLKLSSVQAADTAVYYCAKYDYDDSLDYWGQGTLVTVSSGGGGSGGGGSGGGGSGGGGSDIQMTQSPSSLSASVGDRVTITCHASQNINFWLSWYQQKPGKAPKLLIYEASNLHTGVPSRFSGSGSGTRFTLTISSLQPEDIATYYCQQSHSYPLTFGCGTKLEIKGSDKTHTCPPCPAPELLGGPSVFLFPPKPKDTLMISRTPEVTCVVVDVSHEDPEVKFNWYVDGVEVHNAKTKPREEQYNSTYRVVSVLTVLHQDWLNGKEYKCKVSNKALPAPIEKTISKAKGQPREPRVYTLPPCRDELTKNQVSLTCLVKGFYPSDIAVEWESNGQPENNYKTTPPVLVSDGSFTLYSKLTVDKSRWQQGNVFSCSVMHEALHNHYTQKSLSLSPG
heavy: EVQLVESGGGLVKPGGSLRLSCAASGFTFSSYSMNWVRQAPGKGLEWVSSISSSSSYIYYADSVKGRFTISRDNAKNSLYLQMNSLRAEDTAVYYCARGAPIGAAAGWFDPWGQGTLVTVSSASTKGPSVFPLAPSSKSTSGGTAALGCLVKDYFPEPVTVSWNSGALTSGVHTFPAVLQSSGLYSLSSVVTVPSSSLGTQTYICNVNHKPSNTKVDKKVEPKSCDKTHTCPPCPAPELLGGPSVFLFPPKPKDTLMISRTPEVTCVVVDVSHEDPEVKFNWYVDGVEVHNAKTKPREEQYNSTYRVVSVLTVLHQDWLNGKEYKCKVSNKALPAPIEKTISKAKGQPREPQVCTLPPSRDELTENQVSLTCLVKGFYPSDIAVEWESNGQPENNYKTTPPVLDSDGSFFLYSWLTVDKSRWQQGNVFSCSVMHEALHNHYTQKSLSLSPG
light: DIQMTQSPSSVSASVGDRVTITCRASQGISSWLAWYQQKPGKAPKLLIYAASSLQSGVPSRFSGSGSGTDFTLTISSLQPEDFATYYCQQGVSFPRTFGGGTKVEIKRTVAAPSVFIFPPSDEQLKSGTASVVCLLNNFYPREAKVQWKVDNALQSGNSQESVTEQDSKDSTYSLSSTLTLSKADYEKHKVYACEVTHQGLSSPVTKSFNRGEC
notes: Trispecific F3' format: CLEC12A scFv-Fc paired with NKG2D Fab-Fc; Stressed and control samples of the stability studies are the same molecule; also called AB0237
Binder B1 has a Kd (mFc-hNKG2D [1]) of 678 nM, a koff (mFc-hNKG2D [1]) of 0.128 s⁻¹ and a kon (mFc-hNKG2D [1]) of 189000 M⁻¹ s⁻¹. For the same binder, the Kd (mFc-hNKG2D [2]) was 791 nM.

B2: AB0192 TriNKET (other)
chain: EVQLVESGGGVVQPGGSLRLSCAASGFTFNAFGMHWVRQAPGKCLEWVAFISSGSTSIYYANTVKGRFTISRDNSKNTLYLQMNSLRAEDTAVYYCARDGYPTGGAMDYWGQGTSVTVSSGGGGSGGGGSGGGGSGGGGSDIQMTQSPSSLSASVGDRVTITCKASQDIYNYLSWFQQKPGKAPKPLIYRANILVSGVPSRFSGSGSGQDYTFTISSLQPEDIATYYCLQFDAFPFTFGCGTKLEIKGSDKTHTCPPCPAPELLGGPSVFLFPPKPKDTLMISRTPEVTCVVVDVSHEDPEVKFNWYVDGVEVHNAKTKPREEQYNSTYRVVSVLTVLHQDWLNGKEYKCKVSNKALPAPIEKTISKAKGQPREPRVYTLPPCRDELTKNQVSLTCLVKGFYPSDIAVEWESNGQPENNYKTTPPVLVSDGSFTLYSKLTVDKSRWQQGNVFSCSVMHEALHNHYTQKSLSLSPG
heavy: B1 heavy
light: B1 light
notes: the condition stands under assay; also called AB0192 Lot AB0192-005
With B2 the Kd (mFc-hNKG2D [3]) was 770 nM and 783 nM and 788 nM and the Kd (mFc-hNKG2D [4]) was 781 nM.

B3: AB0089 TriNKET (bispecific antibody, human IgG1, kappa)
chain: B1 chain with S53V, K56A, K71V, Y98G, D101G, S103T, R207D, I220F
heavy: B1 heavy
light: B1 light
notes: F3' format heterodimer of three chains; human IgG1 Fc with EW-RVT and Y349C/S354C mutations; also called AB0089 Lot AB0089-002; CLEC12A TriNKET AB0089
For B3, the Kd [5] was 873 nM and 894 nM and 885 nM, the kon (Human CLEC12A-K244Q-His) was 9.7e+06 M⁻¹ s⁻¹ and the kon [6] was 1.63e+07 M⁻¹ s⁻¹. The “% Max, ADCP activity of M0 macrophages against PL21 cells” value [7] was 15%, the “EC50, ADCP activity of M0 macrophages against PL21 cells” value [7] was 0.03 nM and the Kd [8] was 349 nM. It also gave a koff [9] of 0.0373 s⁻¹, a Kd [10] of 797 nM and a koff [10] of 0.135 s⁻¹. For the same binder, the kon [10] was 169000 M⁻¹ s⁻¹, the Kd [11] was 322 nM and the koff [11] was 0.0278 s⁻¹. For the same binder, the kon [11] was 86400 M⁻¹ s⁻¹, the koff [12] was 0.042 s⁻¹ and the koff [13] was 0.0481 s⁻¹.

B4: F3'-1602 TriNKET (other)
chain: B1 chain
heavy: B1 heavy
light: B1 light
notes: CLEC12A scFv-Fc, NKG2D A49MI Fab-Fc, human IgG1 Fc; also called AB0237
With B4 the Kd (recombinant human FcRn) was 1600 nM, the “fold difference in affinity vs trastuzumab” value [14] was ≤ 3 fold and the “fold difference in affinity vs trastuzumab” value [15] was ≤ 3 fold.
